Assay [1] deals with soluble monomeric hFcRn (human) (UniProt P55899). Put plainly: Biacore, IgGs immobilized on the same chip, soluble monomeric hFcRn; reference human IgG1.
The next assay concerns the target hIgG (human IgG). Put plainly: Biacore, hIgG immobilized.

Chain of soluble monomeric hFcRn (human) (P55899 24-297, chain 1 of 2): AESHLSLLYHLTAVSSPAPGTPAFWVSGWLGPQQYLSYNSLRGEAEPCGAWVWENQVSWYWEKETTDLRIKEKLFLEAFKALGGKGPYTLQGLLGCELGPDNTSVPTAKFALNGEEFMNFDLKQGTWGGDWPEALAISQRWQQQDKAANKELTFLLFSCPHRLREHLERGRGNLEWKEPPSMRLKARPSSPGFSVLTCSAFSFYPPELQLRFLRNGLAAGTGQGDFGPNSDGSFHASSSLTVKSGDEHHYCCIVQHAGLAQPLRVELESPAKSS
Chain of soluble monomeric hFcRn (human) (P61769 21-119, chain 2 of 2, further chain): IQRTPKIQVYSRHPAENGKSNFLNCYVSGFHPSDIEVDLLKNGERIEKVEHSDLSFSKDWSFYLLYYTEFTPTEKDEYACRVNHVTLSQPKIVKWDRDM

rabbit IgG1 (antibody): the fold tighter Kd than hIgG in assay [1] worked out at 2 fold.

“soluble monomeric hFcRn (from UniProt P55899 24-297; P61769 21-119) (receptor)”: the Kd with hIgG (human IgG) is 2000 nM.

(Values after US20070148164A1.)
